# Test results reported in patent publication US20130115279A1 (IMMUNOCELLULAR THERAPEUTICS, published 2013).
# B1: CD133 peptide NLLSFAYDL (SEQ ID NO:12) (peptide)
# peptide: NLLSFAYDL
# notes: synthetic nine-residue peptide of human CD133 (ProImmune)
# B2: CD133 peptide FITNNTSSV (SEQ ID NO:13) (peptide)
# peptide: FITNNTSSV
# notes: as for B1
# B3: CD133 peptide RVLDTPYLL (SEQ ID NO:14) (peptide)
# peptide: RVLDTPYLL
# notes: as for B1
# B4: CD133 peptide ILCCVLGLL (SEQ ID NO:19) (peptide)
# peptide: ILCCVLGLL
# notes: as for B1
# B5: CD133 peptide FLLPALIFA (SEQ ID NO:21) (peptide)
# peptide: FLLPALIFA
# notes: as for B1
# B6: CD133 peptide YLQWIEFSI (SEQ ID NO:11) (peptide)
# peptide: YLQWIEFSI
# notes: as for B1
# B7: CD133 peptide GLLERVTRI (SEQ ID NO:20) (peptide)
# peptide: GLLERVTRI
# notes: as for B1
# B8: CD133 peptide VLDEIKSMA (SEQ ID NO:10) (peptide)
# peptide: VLDEIKSMA
# notes: as for B1
# B9: CD133 peptide LVLGSLLLL (SEQ ID NO:17) (peptide)
# peptide: LVLGSLLLL
# notes: as for B1
# B10: CD133 peptide ELVHIFLYV (SEQ ID NO:16) (peptide)
# peptide: ELVHIFLYV
# notes: as for B1
# B11: CD133 peptide SLDFAQNFI (SEQ ID NO:15) (peptide)
# peptide: SLDFAQNFI
# notes: as for B1
# B12: CD133 peptide SQLNSNPEL (SEQ ID NO:18) (peptide)
# peptide: SQLNSNPEL
# notes: as for B1
# B13: CD133 peptide KLFNKSKMK (SEQ ID NO:4) (peptide)
# peptide: KLFNKSKMK
# notes: as for B1
# B14: CD133 peptide IIDPLNLFW (SEQ ID NO:3) (peptide)
# peptide: IIDPLNLFW
# notes: as for B1
# B15: CD133 peptide AVDVFLCSY (SEQ ID NO:1) (peptide)
# peptide: AVDVFLCSY
# notes: as for B1
# B16: CD133 peptide SSELESLKV (SEQ ID NO:2) (peptide)
# peptide: SSELESLKV
# notes: as for B1
# B17: CD133 peptide NLFWFGIGK (SEQ ID NO:9) (peptide)
# peptide: NLFWFGIGK
# notes: as for B1
# B18: CD133 peptide ILAQYNTTK (SEQ ID NO:5) (peptide)
# peptide: ILAQYNTTK
# notes: as for B1
# B19: CD133 peptide YLSGKLFNK (SEQ ID NO:6) (peptide)
# peptide: YLSGKLFNK
# notes: as for B1
# B20: CD133 peptide LSSSLTSVK (SEQ ID NO:8) (peptide)
# peptide: LSSSLTSVK
# notes: as for B1
# B21: CD133 peptide RTRIKRSRK (SEQ ID NO:7) (peptide)
# peptide: RTRIKRSRK
# notes: as for B1
# Target: T1, HLA-A*0201 (human)
# T1 construct: Class I MHC molecule of the ProImmune REVEAL assay; also called HLA-A2
# Assay: REVEAL MHC binding assay, incorporation into MHC relative to positive control peptide
row,Binder,% Positive Control [%]
1,B1,180
2,B2,107
3,B3,165
4,B4,163
5,B5,93.6
6,B6,113
7,B7,131
8,B8,309
9,B9,102
10,B10,156
11,B11,115
12,B12,123

# Target: T2, HLA-A*0301 (human)
# T2 construct: Class I MHC molecule of the ProImmune REVEAL assay; also called HLA-A3
# Assay: REVEAL off rate analysis of peptide-MHC pentamers, 37 C, 0, 2 and 24 h; * 24 h interval too short for an accurate value
# Description: (§1) The pentamers were subjected to incubation and analysis at 37° C. to determine the stability of peptide-MHC complexes. Off-rates of the complexes were measured by REVEAL™ off rate analysis (ProImmune Ltd., Oxford, UK) after 0, 2, and 24 hours of incubation at 37° C.
row,Binder,t1/2 [h]
1,B13,27.8

# Target: T1, HLA-A*0201
# Assay: as above
# Description: as §1
row,Binder,t1/2 [h]
1,B5,> 120
2,B6,83
3,B7,74.3

# Target: T3, HLA-A*0101 (human)
# T3 construct: Class I MHC molecule of the ProImmune REVEAL assay; also called HLA-A1
# Assay: REVEAL MHC binding assay, incorporation into MHC relative to positive control peptide
row,Binder,% Positive Control [%]
1,B14,91.5
2,B15,58.6
3,B16,74.1

# Target: T2, HLA-A*0301
# Assay: as above
row,Binder,% Positive Control [%]
1,B17,53.1
2,B18,46.6
3,B19,46.9
4,B13,80.8
5,B20,52.5
6,B21,87.3

# Target: T2, HLA-A*0301
# Assay: REVEAL off rate analysis of peptide-MHC pentamers, 37 C, 0, 2 and 24 h
# Description: as §1
row,Binder,t1/2 [h]
1,B17,3.35
2,B18,2.07
3,B20,1.8
4,B21,23.9

# Target: T3, HLA-A*0101
# Assay: as above
# Description: as §1
row,Binder,t1/2 [h]
1,B14,0.35
2,B15,20.7
3,B16,0.46

# Target: T1, HLA-A*0201
# Assay: as above
# Description: as §1
row,Binder,t1/2 [h]
1,B1,1.83
2,B2,20
3,B3,3.51
4,B4,5.63
5,B8,1.43
6,B9,8.25
7,B10,6.86
8,B11,15.5
9,B12,2.37
